Laboratory results from paper PMC12876063, “Rad51 determines pathway usage in post-replication repair” (Nature Communications, 2026).
Where “and” joins values, the source holds several entries; their conditions need not be identical. Identical values can stand only once.

T1: Rad51-KN (Rad51-K305N) K305N (Saccharomyces cerevisiae) (UniProt P25454)
T1 sequence: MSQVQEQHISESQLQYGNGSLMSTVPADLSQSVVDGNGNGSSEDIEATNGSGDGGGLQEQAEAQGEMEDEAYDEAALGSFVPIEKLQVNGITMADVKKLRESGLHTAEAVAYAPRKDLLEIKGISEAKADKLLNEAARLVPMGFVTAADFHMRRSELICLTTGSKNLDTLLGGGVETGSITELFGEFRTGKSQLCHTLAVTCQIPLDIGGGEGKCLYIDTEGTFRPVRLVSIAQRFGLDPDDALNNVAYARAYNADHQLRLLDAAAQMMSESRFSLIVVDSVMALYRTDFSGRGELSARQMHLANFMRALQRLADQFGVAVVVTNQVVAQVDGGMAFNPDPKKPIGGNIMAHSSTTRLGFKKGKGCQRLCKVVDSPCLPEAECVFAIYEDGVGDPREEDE

T2: Rad51-ED (Rad51-E135D) E135D (Saccharomyces cerevisiae) (UniProt P25454)
T2 sequence: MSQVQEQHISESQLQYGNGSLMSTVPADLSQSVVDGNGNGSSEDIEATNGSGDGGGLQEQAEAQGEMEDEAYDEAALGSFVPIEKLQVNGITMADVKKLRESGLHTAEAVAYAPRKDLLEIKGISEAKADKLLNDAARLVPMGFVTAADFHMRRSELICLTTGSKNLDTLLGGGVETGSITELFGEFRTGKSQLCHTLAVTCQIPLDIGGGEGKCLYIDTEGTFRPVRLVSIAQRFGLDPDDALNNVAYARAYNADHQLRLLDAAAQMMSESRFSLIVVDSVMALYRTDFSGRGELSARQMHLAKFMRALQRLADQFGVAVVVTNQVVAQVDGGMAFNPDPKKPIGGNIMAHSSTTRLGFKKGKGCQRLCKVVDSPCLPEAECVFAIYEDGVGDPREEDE

T3: Rad51 wild type (Saccharomyces cerevisiae) (UniProt P25454)
T3 sequence: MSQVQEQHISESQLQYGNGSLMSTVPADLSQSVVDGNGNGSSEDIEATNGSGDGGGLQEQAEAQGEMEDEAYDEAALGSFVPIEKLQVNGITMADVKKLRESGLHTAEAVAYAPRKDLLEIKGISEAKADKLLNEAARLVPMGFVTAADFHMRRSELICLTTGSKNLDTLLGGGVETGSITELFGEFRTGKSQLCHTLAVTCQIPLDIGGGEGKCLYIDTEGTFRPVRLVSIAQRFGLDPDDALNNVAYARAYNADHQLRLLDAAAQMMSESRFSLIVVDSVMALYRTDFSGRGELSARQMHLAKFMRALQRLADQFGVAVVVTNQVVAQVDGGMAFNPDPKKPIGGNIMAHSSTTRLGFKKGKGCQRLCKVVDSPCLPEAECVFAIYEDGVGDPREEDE

T4: GST-Rad55-His6-Rad57 complex (S. cerevisiae, UniProt P38953 1-406; P25301 1-460)
T4 construct: Rad55, Rad51 paralog of budding yeast; Rad57, Rad51 paralog of budding yeast; stored in 20 mM Tris-HCl pH 7.5, 0.2 M NaCl, 0.1 mM EDTA, 1 mM DTT, 50% glycerol; also called Rad55-Rad57; Rad51 paralog complex; source: purified as described (Liu et al. 2011b)
T4 sequence (looked up) 1: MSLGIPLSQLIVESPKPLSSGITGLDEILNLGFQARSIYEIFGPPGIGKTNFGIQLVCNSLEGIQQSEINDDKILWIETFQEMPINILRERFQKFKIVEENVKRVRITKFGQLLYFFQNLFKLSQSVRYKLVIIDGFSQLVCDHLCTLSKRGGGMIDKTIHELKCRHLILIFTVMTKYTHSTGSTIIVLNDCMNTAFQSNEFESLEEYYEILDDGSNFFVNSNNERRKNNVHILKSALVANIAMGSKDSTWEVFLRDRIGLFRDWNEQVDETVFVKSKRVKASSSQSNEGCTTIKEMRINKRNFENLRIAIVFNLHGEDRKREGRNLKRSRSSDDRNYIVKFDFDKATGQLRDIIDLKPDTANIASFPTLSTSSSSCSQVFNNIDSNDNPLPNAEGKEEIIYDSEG
T4 sequence (looked up) 2: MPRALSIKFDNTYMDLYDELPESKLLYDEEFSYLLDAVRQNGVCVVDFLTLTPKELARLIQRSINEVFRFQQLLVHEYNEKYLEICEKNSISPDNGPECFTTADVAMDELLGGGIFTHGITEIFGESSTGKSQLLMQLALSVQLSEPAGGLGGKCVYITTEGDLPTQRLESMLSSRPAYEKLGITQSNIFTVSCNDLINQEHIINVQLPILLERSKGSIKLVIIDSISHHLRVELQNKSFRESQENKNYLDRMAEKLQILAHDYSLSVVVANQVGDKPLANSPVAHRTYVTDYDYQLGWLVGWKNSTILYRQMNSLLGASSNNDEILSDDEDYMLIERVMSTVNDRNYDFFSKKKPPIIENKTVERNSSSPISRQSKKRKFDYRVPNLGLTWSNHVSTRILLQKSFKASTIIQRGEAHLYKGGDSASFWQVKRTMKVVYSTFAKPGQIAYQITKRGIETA


What was measured:
[1] = biological target: T1, Rad51-KN (Rad51-K305N) K305N (Saccharomyces cerevisiae); experiment: EMSA (salt titration); conditions: 3.33 uM Rad51, ATP, Mg2+; listed as label assigned from text (ED defect stronger); Kd EMSA: 35 mM Tris-acetate pH 7.5, 50 or 100 mM NaCl, 7 mM Mg acetate, 2 mM ATP, 1 mM DTT, 0.25 mg/mL BSA, 3 uM nt/bp DNA, 30 C 30 min; salt titration: 20 mM …
[2] = biological target: T2, Rad51-ED (Rad51-E135D) E135D (Saccharomyces cerevisiae); experiment: EMSA (salt titration); conditions: 3.33 uM Rad51, ATP, Mg2+; listed as label assigned from text (ED defect stronger); Kd EMSA: 35 mM Tris-acetate pH 7.5, 50 or 100 mM NaCl, 7 mM Mg acetate, 2 mM ATP, 1 mM DTT, 0.25 mg/mL BSA, 3 uM nt/bp DNA, 30 C 30 min; salt titration: 20 mM …
[3] = biological target: T3, Rad51 wild type (Saccharomyces cerevisiae); experiment: EMSA (salt titration); conditions: 3.33 uM Rad51, ATP, Mg2+, glutaraldehyde fixed; Kd EMSA: 35 mM Tris-acetate pH 7.5, 50 or 100 mM NaCl, 7 mM Mg acetate, 2 mM ATP, 1 mM DTT, 0.25 mg/mL BSA, 3 uM nt/bp DNA, 30 C 30 min; salt titration: 20 mM …
[4] = biological target: T1, Rad51-KN (Rad51-K305N) K305N (Saccharomyces cerevisiae); experiment: EMSA; conditions: Kd EMSA: 35 mM Tris-acetate pH 7.5, 50 or 100 mM NaCl, 7 mM Mg acetate, 2 mM ATP, 1 mM DTT, 0.25 mg/mL BSA, 3 uM nt/bp DNA, 30 C 30 min; salt titration: 20 mM …
[5] = biological target: T2, Rad51-ED (Rad51-E135D) E135D (Saccharomyces cerevisiae); experiment: EMSA; conditions: Kd EMSA: 35 mM Tris-acetate pH 7.5, 50 or 100 mM NaCl, 7 mM Mg acetate, 2 mM ATP, 1 mM DTT, 0.25 mg/mL BSA, 3 uM nt/bp DNA, 30 C 30 min; salt titration: 20 mM …
[6] = biological target: T3, Rad51 wild type (Saccharomyces cerevisiae); experiment: EMSA; conditions: Kd EMSA: 35 mM Tris-acetate pH 7.5, 50 or 100 mM NaCl, 7 mM Mg acetate, 2 mM ATP, 1 mM DTT, 0.25 mg/mL BSA, 3 uM nt/bp DNA, 30 C 30 min; salt titration: 20 mM …
[7] = biological target: T4, GST-Rad55-His6-Rad57 complex; experiment: pull-down; 100 nM GST-Rad55-His6-Rad57 with 100 nM Rad51 in buffer P (25 mM Tris-acetate pH 7.5, 10 mM magnesium acetate, 50 mM NaCl, 1 mM DTT, 10% glycerol, 0.01% NP-40), 25 ul, 1 h at room temperature; captured on BSA-treated glutathione agarose beads; immunoblot with anti-Rad51 and anti-GST; conditions: both partners purified

Molecule | salt titration midpoint (mM NaCl (salt titration midpoint)) [1] | salt titration midpoint (mM NaCl (salt titration midpoint)) [2] | salt titration midpoint (mM NaCl (salt titration midpoint)) [3] | binding result [7] | further results
PhiX174 viral ssDNA | 143 | 130 | 246 | – | –
PhiX174 RF1 dsDNA | 71 | 42 | 174 | – | –
AACGACGTTTGGTCAGTTCCATCAACATCATAGCCAGATGCCCAGAGATTAGAGCGCATGACAAGTAAAGGACGGTTGTCAGCGTCATAAGAGGTTTTAC [olWDH2086 100 nt ssDNA] | – | – | – | – | Kd [4]: 339 nM and 402 nM; Kd [5]: 486 nM and 602 nM; Kd [6]: 497 nM and 578 nM
Rad51 wild type protein (natural protein, S. cerevisiae, UniProt P25454 1-400, looked up, Rad51, Saccharomyces cerevisiae; native, untagged protein; Purified native and untagged; also called wild-type Rad51; wild type Rad51) MSQVQEQHISESQLQYGNGSLMSTVPADLSQSVVDGNGNGSSEDIEATNGSGDGGGLQEQAEAQGEMEDEAYDEAALGSFVPIEKLQVNGITMADVKKLRESGLHTAEAVAYAPRKDLLEIKGISEAKADKLLNEAARLVPMGFVTAADFHMRRSELICLTTGSKNLDTLLGGGVETGSITELFGEFRTGKSQLCHTLAVTCQIPLDIGGGEGKCLYIDTEGTFRPVRLVSIAQRFGLDPDDALNNVAYARAYNADHQLRLLDAAAQMMSESRFSLIVVDSVMALYRTDFSGRGELSARQMHLAKFMRALQRLADQFGVAVVVTNQVVAQVDGGMAFNPDPKKPIGGNIMAHSSTTRLGFKKGKGCQRLCKVVDSPCLPEAECVFAIYEDGVGDPREEDE | – | – | – | binds | –
Rad51-E135D (natural protein, S. cerevisiae, UniProt P25454 1-400, looked up, Rad51, Saccharomyces cerevisiae, with the single change E135D (isolated by mutagenic PCR); native, untagged protein; also called Rad51-ED; rad51-ED) MSQVQEQHISESQLQYGNGSLMSTVPADLSQSVVDGNGNGSSEDIEATNGSGDGGGLQEQAEAQGEMEDEAYDEAALGSFVPIEKLQVNGITMADVKKLRESGLHTAEAVAYAPRKDLLEIKGISEAKADKLLNDAARLVPMGFVTAADFHMRRSELICLTTGSKNLDTLLGGGVETGSITELFGEFRTGKSQLCHTLAVTCQIPLDIGGGEGKCLYIDTEGTFRPVRLVSIAQRFGLDPDDALNNVAYARAYNADHQLRLLDAAAQMMSESRFSLIVVDSVMALYRTDFSGRGELSARQMHLAKFMRALQRLADQFGVAVVVTNQVVAQVDGGMAFNPDPKKPIGGNIMAHSSTTRLGFKKGKGCQRLCKVVDSPCLPEAECVFAIYEDGVGDPREEDE | – | – | – | binds | –
Rad51-K305N (natural protein, S. cerevisiae, UniProt P25454 1-400, looked up, Rad51, Saccharomyces cerevisiae, with the single change K305N (isolated by mutagenic PCR); native, untagged protein; also called Rad51-KN; RAD51-KN) MSQVQEQHISESQLQYGNGSLMSTVPADLSQSVVDGNGNGSSEDIEATNGSGDGGGLQEQAEAQGEMEDEAYDEAALGSFVPIEKLQVNGITMADVKKLRESGLHTAEAVAYAPRKDLLEIKGISEAKADKLLNEAARLVPMGFVTAADFHMRRSELICLTTGSKNLDTLLGGGVETGSITELFGEFRTGKSQLCHTLAVTCQIPLDIGGGEGKCLYIDTEGTFRPVRLVSIAQRFGLDPDDALNNVAYARAYNADHQLRLLDAAAQMMSESRFSLIVVDSVMALYRTDFSGRGELSARQMHLANFMRALQRLADQFGVAVVVTNQVVAQVDGGMAFNPDPKKPIGGNIMAHSSTTRLGFKKGKGCQRLCKVVDSPCLPEAECVFAIYEDGVGDPREEDE | – | – | – | binds | –
